What follows are sequences tested on Escherichia coli TOP10 (assay: shrunken log2 fold change of peptide-encoding DNA abundance (4.5 h post-induction vs induction); higher = less antimicrobial activity (less host growth inhibition)). Details: time post-induction: 4.5 h; library: site-saturation at positions 5, 18, 19, 20.
With RRIRQRPPRLPRPRPRPVRQPRP the “shrunken log2 fold change” value was 0.0135.
RRIRMRPPRLPRPRPRPDTYPRP was tested, and the “shrunken log2 fold change” value was 0.0447.
In the case of RRIRVRPPRLPRPRPRPFFKPRP, the “shrunken log2 fold change” value is reported as 0.0447.
With RRIRWRPPRLPRPRPRPCNVPRP the “shrunken log2 fold change” value was -0.00213.
In the case of RRIRIRPPRLPRPRPRPFHDPRP, the “shrunken log2 fold change” value is reported as -0.374.
RRIRKRPPRLPRPRPRPTLTPRP was tested, and the “shrunken log2 fold change” value was 0.283.
For RRIRWRPPRLPRPRPRPGFPPRP, the “shrunken log2 fold change” value was -0.0683.
RRIRIRPPRLPRPRPRPNMHPRP was tested, and the “shrunken log2 fold change” value was -0.805.
In the case of RRIRLRPPRLPRPRPRPNQGPRP, the “shrunken log2 fold change” value is reported as -0.148.
With RRIRCRPPRLPRPRPRPEESPRP the “shrunken log2 fold change” value was -0.00538.
With RRIRIRPPRLPRPRPRPELSPRP the “shrunken log2 fold change” value was -0.476.
With RRIRNRPPRLPRPRPRPCFGPRP the “shrunken log2 fold change” value was 0.0347.
For RRIRLRPPRLPRPRPRPFLNPRP, the “shrunken log2 fold change” value was -0.172.
In the case of RRIRVRPPRLPRPRPRPTGSPRP, the “shrunken log2 fold change” value is reported as -0.133.
With RRIRSRPPRLPRPRPRPPETPRP the “shrunken log2 fold change” value was 0.103.
With RRIRDRPPRLPRPRPRPTCMPRP the “shrunken log2 fold change” value was -0.0434.
In the case of RRIRVRPPRLPRPRPRPQIVPRP, the “shrunken log2 fold change” value is reported as -0.136.
With RRIRQRPPRLPRPRPRPHWGPRP the “shrunken log2 fold change” value was 0.0433.
RRIRWRPPRLPRPRPRPERSPRP was tested, and the “shrunken log2 fold change” value was 0.317.
With RRIRPRPPRLPRPRPRPEAPPRP the “shrunken log2 fold change” value was 0.53.
For RRIRQRPPRLPRPRPRPYREPRP, the “shrunken log2 fold change” value was -0.0135.
With RRIRERPPRLPRPRPRPDHCPRP the “shrunken log2 fold change” value was -0.0389.
For RRIRARPPRLPRPRPRPYAMPRP, the “shrunken log2 fold change” value was 0.0392.
For RRIRHRPPRLPRPRPRPRGWPRP, the “shrunken log2 fold change” value was 0.629.
For RRIRWRPPRLPRPRPRPATLPRP, the “shrunken log2 fold change” value was -0.0879.
For RRIRDRPPRLPRPRPRPRESPRP, the “shrunken log2 fold change” value was 0.583.
In the case of RRIRMRPPRLPRPRPRPYSKPRP, the “shrunken log2 fold change” value is reported as -0.145.
RRIRMRPPRLPRPRPRPGEQPRP was tested, and the “shrunken log2 fold change” value was 1.48.
With RRIRCRPPRLPRPRPRPDKEPRP the “shrunken log2 fold change” value was -0.00172.
With RRIRNRPPRLPRPRPRPIEWPRP the “shrunken log2 fold change” value was -0.00176.
For RRIRGRPPRLPRPRPRPHAQPRP, the “shrunken log2 fold change” value was 0.868.
In the case of RRIRVRPPRLPRPRPRPWECPRP, the “shrunken log2 fold change” value is reported as -0.00141.
For RRIRIRPPRLPRPRPRPNGFPRP, the “shrunken log2 fold change” value was -0.114.
With RRIRVRPPRLPRPRPRPLGVPRP the “shrunken log2 fold change” value was -0.116.
For RRIRWRPPRLPRPRPRPFITPRP, the “shrunken log2 fold change” value was -0.167.
With RRIRGRPPRLPRPRPRPLPFPRP the “shrunken log2 fold change” value was -0.0338.
For RRIRKRPPRLPRPRPRPLNWPRP, the “shrunken log2 fold change” value was 0.0951.
RRIRKRPPRLPRPRPRPCLAPRP was tested, and the “shrunken log2 fold change” value was 0.433.
For RRIRYRPPRLPRPRPRPEFWPRP, the “shrunken log2 fold change” value was -0.0503.
For RRIRKRPPRLPRPRPRPGLAPRP, the “shrunken log2 fold change” value was 0.977.
In the case of RRIRERPPRLPRPRPRPNYIPRP, the “shrunken log2 fold change” value is reported as -0.672.
In the case of RRIRTRPPRLPRPRPRPDEHPRP, the “shrunken log2 fold change” value is reported as -0.0955.
RRIRDRPPRLPRPRPRPDFGPRP was tested, and the “shrunken log2 fold change” value was -0.0319.
RRIRLRPPRLPRPRPRPEMNPRP was tested, and the “shrunken log2 fold change” value was 0.176.
For RRIRNRPPRLPRPRPRPAVIPRP, the “shrunken log2 fold change” value was -0.277.
RRIRYRPPRLPRPRPRPGICPRP was tested, and the “shrunken log2 fold change” value was -0.179.
With RRIRQRPPRLPRPRPRPVSWPRP the “shrunken log2 fold change” value was 1.47.
With RRIRYRPPRLPRPRPRPSVVPRP the “shrunken log2 fold change” value was -0.844.
In the case of RRIRHRPPRLPRPRPRPFSSPRP, the “shrunken log2 fold change” value is reported as 0.107.
For RRIRGRPPRLPRPRPRPDGHPRP, the “shrunken log2 fold change” value was 0.471.
With RRIRTRPPRLPRPRPRPDDMPRP the “shrunken log2 fold change” value was -0.0233.
For RRIRERPPRLPRPRPRPYYDPRP, the “shrunken log2 fold change” value was -0.362.
In the case of RRIRVRPPRLPRPRPRPHSDPRP, the “shrunken log2 fold change” value is reported as 0.0538.
In the case of RRIRDRPPRLPRPRPRPLRVPRP, the “shrunken log2 fold change” value is reported as 0.679.
For RRIRARPPRLPRPRPRPFPPPRP, the “shrunken log2 fold change” value was 0.332.
In the case of RRIRWRPPRLPRPRPRPQKYPRP, the “shrunken log2 fold change” value is reported as -0.348.
In the case of RRIRPRPPRLPRPRPRPNIKPRP, the “shrunken log2 fold change” value is reported as -0.322.
RRIRWRPPRLPRPRPRPVTPPRP was tested, and the “shrunken log2 fold change” value was 0.666.
RRIRNRPPRLPRPRPRPQAKPRP was tested, and the “shrunken log2 fold change” value was -0.00911.
For RRIRGRPPRLPRPRPRPGTEPRP, the “shrunken log2 fold change” value was 0.731.
For RRIRCRPPRLPRPRPRPWEIPRP, the “shrunken log2 fold change” value was 0.0501.
RRIRVRPPRLPRPRPRPIRTPRP was tested, and the “shrunken log2 fold change” value was 0.782.
For RRIRKRPPRLPRPRPRPRLPPRP, the “shrunken log2 fold change” value was 0.768.
With RRIRIRPPRLPRPRPRPPLFPRP the “shrunken log2 fold change” value was 0.0406.
With RRIRTRPPRLPRPRPRPMGIPRP the “shrunken log2 fold change” value was 0.049.
In the case of RRIRMRPPRLPRPRPRPGCPPRP, the “shrunken log2 fold change” value is reported as 0.521.
RRIRVRPPRLPRPRPRPKYFPRP was tested, and the “shrunken log2 fold change” value was -0.239.
RRIRNRPPRLPRPRPRPSPQPRP was tested, and the “shrunken log2 fold change” value was 0.162.
With RRIRRRPPRLPRPRPRPEEVPRP the “shrunken log2 fold change” value was 0.0988.
With RRIRERPPRLPRPRPRPDHPPRP the “shrunken log2 fold change” value was -0.0179.
In the case of RRIRPRPPRLPRPRPRPWATPRP, the “shrunken log2 fold change” value is reported as -0.213.
In the case of RRIRIRPPRLPRPRPRPTMYPRP, the “shrunken log2 fold change” value is reported as -0.769.
In the case of RRIRGRPPRLPRPRPRPYDHPRP, the “shrunken log2 fold change” value is reported as -0.181.
RRIRYRPPRLPRPRPRPHFTPRP was tested, and the “shrunken log2 fold change” value was -0.817.
In the case of RRIRMRPPRLPRPRPRPMSEPRP, the “shrunken log2 fold change” value is reported as 0.102.
RRIRGRPPRLPRPRPRPAWSPRP was tested, and the “shrunken log2 fold change” value was 0.929.
For RRIRFRPPRLPRPRPRPCPHPRP, the “shrunken log2 fold change” value was -0.135.
In the case of RRIRMRPPRLPRPRPRPLRNPRP, the “shrunken log2 fold change” value is reported as 1.17.
RRIRVRPPRLPRPRPRPMALPRP was tested, and the “shrunken log2 fold change” value was -0.169.
RRIRFRPPRLPRPRPRPLLWPRP was tested, and the “shrunken log2 fold change” value was 0.305.
With RRIRVRPPRLPRPRPRPPRSPRP the “shrunken log2 fold change” value was 0.37.
In the case of RRIRFRPPRLPRPRPRPVNCPRP, the “shrunken log2 fold change” value is reported as -0.15.
RRIRCRPPRLPRPRPRPKKKPRP was tested, and the “shrunken log2 fold change” value was -0.0938.
For RRIRPRPPRLPRPRPRPGNKPRP, the “shrunken log2 fold change” value was -0.0476.
For RRIRDRPPRLPRPRPRPFLWPRP, the “shrunken log2 fold change” value was 0.625.
For RRIRQRPPRLPRPRPRPCMRPRP, the “shrunken log2 fold change” value was 0.0607.
For RRIRHRPPRLPRPRPRPWAPPRP, the “shrunken log2 fold change” value was -0.251.
For RRIRFRPPRLPRPRPRPAEPPRP, the “shrunken log2 fold change” value was 0.137.
With RRIRPRPPRLPRPRPRPARWPRP the “shrunken log2 fold change” value was 0.44.
For RRIRKRPPRLPRPRPRPCAPPRP, the “shrunken log2 fold change” value was 0.436.
In the case of RRIRDRPPRLPRPRPRPSIHPRP, the “shrunken log2 fold change” value is reported as -0.123.
In the case of RRIRRRPPRLPRPRPRPVDVPRP, the “shrunken log2 fold change” value is reported as 1.09.
RRIRFRPPRLPRPRPRPLMRPRP was tested, and the “shrunken log2 fold change” value was 0.278.
In the case of RRIRRRPPRLPRPRPRPSECPRP, the “shrunken log2 fold change” value is reported as -0.039.
RRIRQRPPRLPRPRPRPSFRPRP was tested, and the “shrunken log2 fold change” value was -0.578.
In the case of RRIRGRPPRLPRPRPRPTMVPRP, the “shrunken log2 fold change” value is reported as 0.786.
RRIRRRPPRLPRPRPRPWYVPRP was tested, and the “shrunken log2 fold change” value was 0.0457.
For RRIRWRPPRLPRPRPRPIEDPRP, the “shrunken log2 fold change” value was -0.00101.
With RRIRSRPPRLPRPRPRPAKAPRP the “shrunken log2 fold change” value was 0.000841.
With RRIRGRPPRLPRPRPRPTQTPRP the “shrunken log2 fold change” value was 0.775.
RRIRMRPPRLPRPRPRPQYDPRP was tested, and the “shrunken log2 fold change” value was -0.204.
In the case of RRIRIRPPRLPRPRPRPWRMPRP, the “shrunken log2 fold change” value is reported as -0.473.
RRIRIRPPRLPRPRPRPHIYPRP was tested, and the “shrunken log2 fold change” value was 0.13.
In the case of RRIRQRPPRLPRPRPRPYIVPRP, the “shrunken log2 fold change” value is reported as 0.04.
For RRIRARPPRLPRPRPRPSMDPRP, the “shrunken log2 fold change” value was 1.4.
With RRIRQRPPRLPRPRPRPPMWPRP the “shrunken log2 fold change” value was 0.336.
For RRIRMRPPRLPRPRPRPEDLPRP, the “shrunken log2 fold change” value was 4.64.
With RRIRVRPPRLPRPRPRPVGYPRP the “shrunken log2 fold change” value was -0.0725.
In the case of RRIRARPPRLPRPRPRPSTDPRP, the “shrunken log2 fold change” value is reported as 1.08.
For RRIRARPPRLPRPRPRPMCTPRP, the “shrunken log2 fold change” value was -0.0696.
In the case of RRIRRRPPRLPRPRPRPEANPRP, the “shrunken log2 fold change” value is reported as 0.78.
RRIRMRPPRLPRPRPRPTTNPRP was tested, and the “shrunken log2 fold change” value was 0.403.
For RRIRYRPPRLPRPRPRPQIGPRP, the “shrunken log2 fold change” value was 0.00262.
For RRIRYRPPRLPRPRPRPGMRPRP, the “shrunken log2 fold change” value was 0.561.
RRIRIRPPRLPRPRPRPPRDPRP was tested, and the “shrunken log2 fold change” value was 0.203.
For RRIRNRPPRLPRPRPRPCNFPRP, the “shrunken log2 fold change” value was -0.0737.
With RRIRSRPPRLPRPRPRPWKYPRP the “shrunken log2 fold change” value was 0.0245.
For RRIRPRPPRLPRPRPRPGEHPRP, the “shrunken log2 fold change” value was -0.133.
RRIRFRPPRLPRPRPRPSQGPRP was tested, and the “shrunken log2 fold change” value was -0.117.
RRIRNRPPRLPRPRPRPSGRPRP was tested, and the “shrunken log2 fold change” value was -0.0659.
In the case of RRIRVRPPRLPRPRPRPYIMPRP, the “shrunken log2 fold change” value is reported as -0.937.
RRIRVRPPRLPRPRPRPYNRPRP was tested, and the “shrunken log2 fold change” value was -0.0579.
For RRIRFRPPRLPRPRPRPHKYPRP, the “shrunken log2 fold change” value was -0.411.
RRIRWRPPRLPRPRPRPQDRPRP was tested, and the “shrunken log2 fold change” value was -0.0199.
For RRIRCRPPRLPRPRPRPDQGPRP, the “shrunken log2 fold change” value was -0.143.

From the supplement of paper PMC9112550, “Optimization of the antimicrobial peptide Bac7 by deep mutational scanning” (BMC Biology, 2022)
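Also: peptides expressed intracellularly from a pBAD plasmid library in pooled LB shake-flask culture, induced with 0.3% L-arabinose, DNA abundance read by NGS, three biological replicates, DESeq2 with apeglm shrinkage.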
